The values below come from patent publication US20080311132A1.

The target of experiment [1] is C5 (UniProt P01031). Put plainly: SPR (Biacore), CVF on the chip, C5 in solution.
The target in experiment [2] is Factor H (UniProt P08603). Nature of the experiment: SPR (Biacore), CVF on the chip, factor H in solution.
Experiment [3] has as its target Factor B (UniProt P00751). Nature of the experiment: SPR (Biacore), CVF on the chip, factor B in solution, in EDTA. A general note: SPR reads the build-up and loss of mass on a sensor chip optically.
For experiment [4], the target named is Factor B (UniProt P00751). Nature of the experiment: SPR (Biacore), CVF on the chip, factor B in solution, with Mg.
Factor B, sequence (P00751 26-764 limits assumed): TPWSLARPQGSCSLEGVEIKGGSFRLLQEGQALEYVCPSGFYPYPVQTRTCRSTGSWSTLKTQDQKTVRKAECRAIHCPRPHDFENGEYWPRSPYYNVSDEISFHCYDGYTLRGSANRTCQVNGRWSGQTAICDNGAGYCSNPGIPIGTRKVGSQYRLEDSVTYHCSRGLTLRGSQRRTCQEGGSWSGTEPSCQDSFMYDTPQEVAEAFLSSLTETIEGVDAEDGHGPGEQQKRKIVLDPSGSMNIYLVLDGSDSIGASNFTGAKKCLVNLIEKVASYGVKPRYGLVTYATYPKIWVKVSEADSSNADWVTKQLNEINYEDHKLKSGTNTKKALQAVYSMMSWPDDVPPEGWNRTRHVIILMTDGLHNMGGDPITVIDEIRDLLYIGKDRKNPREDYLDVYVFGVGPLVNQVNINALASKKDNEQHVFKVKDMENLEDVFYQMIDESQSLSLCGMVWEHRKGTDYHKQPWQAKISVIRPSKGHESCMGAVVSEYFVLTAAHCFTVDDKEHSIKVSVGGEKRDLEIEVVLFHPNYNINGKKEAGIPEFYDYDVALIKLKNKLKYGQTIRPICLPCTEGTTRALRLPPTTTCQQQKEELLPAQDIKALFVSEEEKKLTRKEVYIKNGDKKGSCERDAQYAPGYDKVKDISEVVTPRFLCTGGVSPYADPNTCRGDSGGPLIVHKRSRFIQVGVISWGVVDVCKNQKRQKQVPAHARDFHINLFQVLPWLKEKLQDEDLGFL
Experiment [5] deals with Factor B (UniProt P00751). Nature of the experiment: SPR (Biacore), CVF on the chip, factor B in solution, with factor D and Mg.
The target in experiment [6] is Bb, the activated form of factor B (UniProt P00751). Put plainly: SPR (Biacore) at 25° C., half-life of the C3 convertase formed on CVF on the chip.

Cobra Venom Factor, sequence (Q91132 23-649 limits assumed): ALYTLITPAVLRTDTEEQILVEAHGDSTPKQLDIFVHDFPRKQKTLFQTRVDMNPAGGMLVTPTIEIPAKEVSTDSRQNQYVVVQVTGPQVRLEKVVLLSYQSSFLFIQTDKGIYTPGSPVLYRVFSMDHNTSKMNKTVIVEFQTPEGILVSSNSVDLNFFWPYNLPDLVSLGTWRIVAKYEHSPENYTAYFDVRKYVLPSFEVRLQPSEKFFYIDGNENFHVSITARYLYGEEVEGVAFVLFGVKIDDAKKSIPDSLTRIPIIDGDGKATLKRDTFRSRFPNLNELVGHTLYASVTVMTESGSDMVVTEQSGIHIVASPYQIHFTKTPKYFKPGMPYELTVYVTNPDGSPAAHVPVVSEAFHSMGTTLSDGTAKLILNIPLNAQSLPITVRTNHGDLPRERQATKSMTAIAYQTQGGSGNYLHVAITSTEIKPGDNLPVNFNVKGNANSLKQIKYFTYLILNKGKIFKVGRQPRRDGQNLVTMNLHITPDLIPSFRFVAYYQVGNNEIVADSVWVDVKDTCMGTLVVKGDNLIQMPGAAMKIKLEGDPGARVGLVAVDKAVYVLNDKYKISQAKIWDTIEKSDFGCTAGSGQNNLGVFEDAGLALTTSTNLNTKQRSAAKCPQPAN
Cobra Venom Factor, sequence (Q91132 733-984 limits assumed): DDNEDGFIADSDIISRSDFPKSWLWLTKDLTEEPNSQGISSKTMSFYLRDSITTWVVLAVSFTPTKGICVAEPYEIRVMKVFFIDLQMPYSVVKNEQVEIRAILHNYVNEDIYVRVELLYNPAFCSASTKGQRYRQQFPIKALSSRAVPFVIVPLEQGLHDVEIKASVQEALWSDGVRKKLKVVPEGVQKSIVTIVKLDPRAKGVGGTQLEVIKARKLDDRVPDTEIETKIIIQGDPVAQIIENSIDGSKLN
Cobra Venom Factor, sequence (Q91132 1264-1642 limits assumed): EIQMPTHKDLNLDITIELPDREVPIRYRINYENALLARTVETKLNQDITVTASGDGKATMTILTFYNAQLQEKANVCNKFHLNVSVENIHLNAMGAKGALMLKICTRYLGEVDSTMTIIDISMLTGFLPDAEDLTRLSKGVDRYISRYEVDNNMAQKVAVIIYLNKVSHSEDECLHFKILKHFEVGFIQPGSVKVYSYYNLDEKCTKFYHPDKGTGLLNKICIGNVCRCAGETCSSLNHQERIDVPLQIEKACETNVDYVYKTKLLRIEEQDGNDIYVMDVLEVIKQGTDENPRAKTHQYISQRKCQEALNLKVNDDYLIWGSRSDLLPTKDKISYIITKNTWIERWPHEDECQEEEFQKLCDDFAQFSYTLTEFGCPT
C5, sequence (P01031 19-673 limits assumed, form in doubt, chain 1 of 2): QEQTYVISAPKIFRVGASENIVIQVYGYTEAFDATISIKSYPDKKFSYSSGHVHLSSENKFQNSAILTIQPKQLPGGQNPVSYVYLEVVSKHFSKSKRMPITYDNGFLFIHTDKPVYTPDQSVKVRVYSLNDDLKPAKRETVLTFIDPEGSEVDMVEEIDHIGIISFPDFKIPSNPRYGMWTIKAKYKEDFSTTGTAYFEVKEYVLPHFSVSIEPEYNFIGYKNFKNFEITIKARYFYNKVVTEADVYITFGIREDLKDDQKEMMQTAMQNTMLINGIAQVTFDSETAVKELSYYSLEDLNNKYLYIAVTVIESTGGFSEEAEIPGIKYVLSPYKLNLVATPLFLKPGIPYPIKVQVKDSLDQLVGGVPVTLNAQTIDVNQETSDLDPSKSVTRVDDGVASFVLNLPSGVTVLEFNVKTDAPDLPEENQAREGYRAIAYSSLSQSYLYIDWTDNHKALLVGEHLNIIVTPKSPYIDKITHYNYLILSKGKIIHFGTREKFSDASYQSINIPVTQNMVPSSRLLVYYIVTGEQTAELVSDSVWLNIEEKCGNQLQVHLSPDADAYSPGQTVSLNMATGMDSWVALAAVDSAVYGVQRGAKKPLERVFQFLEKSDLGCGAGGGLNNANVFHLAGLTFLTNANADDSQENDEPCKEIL
C5, sequence (P01031 678-1676 limits assumed, form in doubt, chain 2 of 2): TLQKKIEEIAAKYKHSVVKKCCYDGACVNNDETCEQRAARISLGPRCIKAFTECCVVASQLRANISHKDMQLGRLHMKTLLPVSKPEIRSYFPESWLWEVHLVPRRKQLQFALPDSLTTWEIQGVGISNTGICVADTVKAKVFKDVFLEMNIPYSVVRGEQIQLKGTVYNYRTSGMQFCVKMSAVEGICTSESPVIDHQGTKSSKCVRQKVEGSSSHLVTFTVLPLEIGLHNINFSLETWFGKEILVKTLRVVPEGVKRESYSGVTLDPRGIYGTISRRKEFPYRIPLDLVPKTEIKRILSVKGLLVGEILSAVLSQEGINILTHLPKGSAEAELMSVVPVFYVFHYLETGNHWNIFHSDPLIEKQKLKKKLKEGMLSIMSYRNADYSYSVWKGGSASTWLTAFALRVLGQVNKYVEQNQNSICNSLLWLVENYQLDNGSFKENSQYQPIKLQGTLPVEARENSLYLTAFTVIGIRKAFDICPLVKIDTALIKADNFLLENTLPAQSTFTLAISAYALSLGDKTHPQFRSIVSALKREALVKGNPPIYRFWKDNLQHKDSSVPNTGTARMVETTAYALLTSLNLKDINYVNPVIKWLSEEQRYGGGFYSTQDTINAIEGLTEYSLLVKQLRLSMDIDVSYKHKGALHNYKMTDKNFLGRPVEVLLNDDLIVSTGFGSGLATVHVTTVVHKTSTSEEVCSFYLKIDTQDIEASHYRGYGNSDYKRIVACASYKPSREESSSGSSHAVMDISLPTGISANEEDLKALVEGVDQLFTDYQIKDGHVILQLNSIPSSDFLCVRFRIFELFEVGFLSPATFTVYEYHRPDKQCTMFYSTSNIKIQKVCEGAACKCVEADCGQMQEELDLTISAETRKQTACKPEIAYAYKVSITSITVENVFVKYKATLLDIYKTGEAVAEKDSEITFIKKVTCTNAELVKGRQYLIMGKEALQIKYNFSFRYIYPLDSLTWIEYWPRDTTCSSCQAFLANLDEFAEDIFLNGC
Factor H, sequence (P08603 19-1231 limits assumed): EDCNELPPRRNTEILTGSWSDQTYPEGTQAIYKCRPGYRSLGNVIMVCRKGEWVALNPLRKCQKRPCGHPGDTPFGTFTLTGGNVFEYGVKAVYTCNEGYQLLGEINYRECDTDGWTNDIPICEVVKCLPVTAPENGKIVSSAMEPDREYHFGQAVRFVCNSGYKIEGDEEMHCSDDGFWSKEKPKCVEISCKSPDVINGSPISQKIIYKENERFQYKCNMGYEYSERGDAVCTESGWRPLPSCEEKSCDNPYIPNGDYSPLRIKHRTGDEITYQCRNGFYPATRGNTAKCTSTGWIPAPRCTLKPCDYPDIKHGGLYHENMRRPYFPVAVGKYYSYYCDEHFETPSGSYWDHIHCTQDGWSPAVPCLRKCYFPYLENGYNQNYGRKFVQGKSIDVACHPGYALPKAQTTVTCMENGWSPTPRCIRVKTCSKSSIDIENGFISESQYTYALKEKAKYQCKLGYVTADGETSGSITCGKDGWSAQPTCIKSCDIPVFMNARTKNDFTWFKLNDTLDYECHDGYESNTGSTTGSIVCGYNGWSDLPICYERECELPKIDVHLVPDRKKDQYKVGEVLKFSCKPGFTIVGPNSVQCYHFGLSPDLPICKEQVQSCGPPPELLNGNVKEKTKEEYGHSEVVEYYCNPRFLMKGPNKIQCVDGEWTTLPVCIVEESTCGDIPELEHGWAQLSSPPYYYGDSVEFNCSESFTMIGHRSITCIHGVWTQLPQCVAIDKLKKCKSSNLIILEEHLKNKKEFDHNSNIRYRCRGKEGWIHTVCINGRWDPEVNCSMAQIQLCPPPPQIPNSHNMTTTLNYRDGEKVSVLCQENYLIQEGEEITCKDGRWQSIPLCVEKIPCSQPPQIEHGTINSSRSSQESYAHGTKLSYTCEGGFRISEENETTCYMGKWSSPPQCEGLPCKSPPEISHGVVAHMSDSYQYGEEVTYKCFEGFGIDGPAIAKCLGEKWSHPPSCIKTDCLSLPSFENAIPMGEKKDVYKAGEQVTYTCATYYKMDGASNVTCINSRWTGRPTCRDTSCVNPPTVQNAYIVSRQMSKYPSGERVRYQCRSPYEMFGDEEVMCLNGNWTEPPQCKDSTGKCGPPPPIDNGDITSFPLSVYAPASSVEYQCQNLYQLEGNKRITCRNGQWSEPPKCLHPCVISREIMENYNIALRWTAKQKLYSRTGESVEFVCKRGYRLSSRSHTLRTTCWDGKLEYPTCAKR

With “Cobra Venom Factor (from UniProt Q91132 23-649; Q91132 733-984; Q91132 1264-1642)”, the Amount of protein bound (RU) in experiment [1] is 617 RU; in experiment [2], -14 RU; in experiment [3], 99 RU; in experiment [4], 298 RU; in experiment [5], 370 RU. In experiment [6], this substance had a T½ of C3 convertase of 18.3 h.
